How the values were obtained:
[1] = tested on: lung carcinoma cells (A549); assay: intracellular Ca^2+, Fluo-4, real time confocal microscopy; assay type: cell-based, human; settings: for effect of channel blocker on first, EGTA insensitive Ca^2+ peak in response to HAMLET: 30 minutes pretreatment
Experimental: To examine if HAMLET modulates ion channel activity in tumor cells, we first quantified changes in intracellular Ca^2+ and K^+. Lung carcinoma cells were first preloaded with the Fluo-4 Ca^2+ fluorophore Fluo-, exposed to HAMLET (35 μM) and examined by real time confocal microscopy for changes in fluorescence intensity (FIG. 1A). The Ca^2+ ionophore A23187, which acts as a Ca^2+ shuttle across cell membranes, was used as a positive control (Abbott et al., 1979, Antimicrobial Agents and Chemotherapy 16, 808-812).
To distinguish Ca^2+ mobilization from intracellular stores from the influx of extracellular Ca^2+, EGTA was then added to the cell medium. […] K^+ fluxes across tumor cell membranes were subsequently quantified under the same experimental conditions, using the fluorophore FLUXOR™, which fluoresces after thallium has entered cells through K^+ channels.
To further characterize ion channel activation by HAMLET, carcinoma cells were pretreated with defined channel blockers. Amiloride is a sodium channel inhibitor with effects on mechanosensitive channels, barium chloride (BaCl2) is a general K^+ channel inhibitor, gadolinium chloride (GdCl3) inhibits mechanosensitive channels, Ruthenium red is a general Ca^2+ inhibitor and tetrandrine inhibits large conductance, Ca^2+ activated K^+ channels. The carcinoma cells were preincubated with Fluo-4 as described above, pretreated with each of the channel inhibitors for 30 minutes, exposed to HAMLET (35 μM) and examined by real time confocal imaging. Furthermore, cells treated with EGTA were compared to cells with intact extracellular Ca^2+ levels, to distinguish the early peak from the subsequent influx of Ca^2+ (FIG. 1B, Table in FIG. 8).

[2] = tested on: IL-6, IL-8, TNFα in healthy, differentiated cells; assay: innate immune response (qRT-PCR, cytokine quantification); assay type: cell-based, human
Experimental: RNA was prepared with the RNeasy Mini Kit (QIAGEN, Hilden, Germany) and treated with DNAse I (QIAGEN). cDNA was synthesized using the Superscript III first strand RT-PCR system (Invitrogen). PCR of spliced and un-spliced XBP1 was as described (Yoshida et al., 2001, Cell 107: 881-891). Real-time PCR was performed on a Rotorgene 2000 instrument (Corbett Life Science, Sydney, Australia) using TaqMan Gene Expression Assays (Applied BioSystems) CHOP/DDIT3 (Hs01090850), IL6 (Hs00985639), IL8 (Hs00174103) and TNFα (Hs00174128). GAPDH (Hs99999905_m1) was used for normalization.
Equal volumes of lysates were separated by SDS-PAGE on 4-12% Bis-Tris gels (Invitrogen) and blotted onto PVDF membranes. For other Western blots, 200,000 cells were allowed to adhere overnight in a 6-well plate. After HAMLET treatment the cells were washed with PBS and lysed in M-PER lysis buffer (Pierce) containing Complete protease inhibitor cocktail and PhosSTOP phosphatase inhibitor cocktail (both from Roche). The detached cells were collected by centrifugation. The lysates were cleared by centrifugation and protein concentrations were measured using the DC Protein Assay (Bio-Rad Laboratories, Hercules, Calif.). Equal amounts of protein were separated by SDS-PAGE on 4-12% Bis-Tris gels (Invitrogen) and blotted onto PVDF membranes (GE Healthcare). Membranes were saturated with BSA (GAPDH) or nonfat dry milk (phospho-p38, p38, phospho-ERK1/2, ERK1/2) and incubated with anti-p38, anti-phospho-p38, anti-ERK1/2, anti-phospho-(Thr202/Tyr204)-p44/42 (all 1:500-1000, Cell Signaling Technology), anti-ATF6 (1:1000, IMG-273, Imgenex), anti-phospho-eIF2α (Ser51), (1:500, Cell Signaling Technology) or anti-GAPDH (1:3000-5000, Novus Biologicals) antibodies followed by horseradish peroxidase-conjugated anti-rabbit (1:1000, DakoCytomation, Glostrup, Denmark) or anti-mouse (1:40000-50000, Novus Biologicals) antibodies for staining. Bound antibodies were detected with ECL Plus Western Blotting Reagent (GE Healthcare, Little Chalfont, UK) and GelDoc equipment (Bio-Rad Laboratories, Hercules, Calif.). If required, membranes were stripped with Restore Western Blot Stripping Buffer (Pierce, Rockford, Ill.), blocked and reprobed with new antibodies. MAP kinase phosphorylation was analyzed on a Human Phospho-MAPK array (Proteome Profiler Array, R&D Systems) as per the manufacturer's instruction. Band and spot intensities were quantified using ImageJ (Abramoff et al., July 2004, Biophotonics International). Cytokine quantification (IL6, IL8, TNFα) was performed on an […] 1000 immunoassay system (Siemens Diagnostics).
To examine the molecular basis of the difference in HAMLET susceptibility between carcinoma cells and healthy, differentiated cells, transcriptional profiles were compared.
To further examine if the innate immune response in healthy, differentiated cells requires functional ion channels, the expression of IL-6, IL-8 and TNFα mRNA was quantified in cells pretreated with amiloride and BaCl2, using qRT-PCR.

With `[Ba+2].[Cl-].[Cl-]` [BaCl2, barium chloride] the “effect of channel blocker on first, EGTA insensitive Ca^2+ peak in response to HAMLET” value ([1]; HAMLET 35 μM) was “inhibited”, the “effect of inhibitor on HAMLET induced TNFα expression” value [2] was “caused a reduction” and the “effect of inhibitor on IL-6 and IL-8 response to HAMLET” value [2] was “did not inhibit”.

With `NC(N)=NC(=O)c1nc(Cl)c(N)nc1N` [amiloride, 3,5-diamino-6-chloro-N-(diaminomethylene)pyrazine-2-carboxamide] the “effect of channel blocker on first, EGTA insensitive Ca^2+ peak in response to HAMLET” value ([1]; HAMLET 35 μM) was “inhibited” and the “effect of inhibitor on HAMLET-induced IL-6 mRNA” value [2] was “abolished”.

B1: HAMLET (protein, UniProt P00709 20-142, looked up)
Alpha-lactalbumin: KQFTKCELSQLLKDIDGYGGIALPELICTMFHTSGYDTQAIVENNESTEYGLFQISNKLWCKSSQVPQSRNICDISCDKFLDDDITDDIMCAKKILDIKGIDYWLAHKALCTEKLEQWLCEKL
modifications: oleic acid complex
For B1, the “cells involved in Ca^2+ response” value [1] was “about 50%”, the “increase in intracellular Ca^2+ levels relative to ionophore” value ([1]; HAMLET 35 μM) was 31 % of the ionophore and the “intracellular Ca^2+ response” value ([1]; HAMLET 35 μM) was “rapid, step-wise increase in intracellular Ca^2+”. The “second Ca^2+ peak” value ([1]; HAMLET 35 μM) was “about 100 seconds”, the “start of increase in intracellular Ca^2+” value ([1]; HAMLET 35 μM) was “about 30 seconds” and the “secreted protein levels of IL-6, IL-8, and TNFα” value [2] was “clear increase in secreted protein levels”. For the same molecule, the “increase in IL-6 mRNA” value ([2]; HAMLET 21 μM, 1 hour, qRT-PCR) was 30 fold.
